Data as given in US20240239894A1 (AstraZeneca / MedImmune, published 2024).

Target: T1, Human B7-H4 ECD-Flag-His10 (monomeric) (human, UniProt Q7Z7D3 25-259)
T1 construct: Minimally biotinylated for KinExA; also called hB7H4-ECD-Flag-His10; B7-H4-FLAG
T1 sequence: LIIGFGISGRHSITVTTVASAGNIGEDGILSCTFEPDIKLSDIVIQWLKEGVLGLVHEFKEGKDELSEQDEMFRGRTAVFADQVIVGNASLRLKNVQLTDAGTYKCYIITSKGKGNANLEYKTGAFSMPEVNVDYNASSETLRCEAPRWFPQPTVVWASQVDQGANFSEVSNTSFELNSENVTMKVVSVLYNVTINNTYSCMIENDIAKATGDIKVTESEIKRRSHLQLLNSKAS
Assay: ELISA, absorbance 450 nm; x axis printed as antigen concentration (µg/ml)

B1: ZY0EPQ-E02 human IgG1-TM (antibody, V domains shown)
VH: QVQLQQWGAGLLKPSETLSLTCAVYGGSFSGYYWNWIRQPPGKGLEWIGEINHSGSTNYNPSLKSRVTILVDTSKNQFSLKLSSVTAADTAVYYCARNLYNWNLDSWGQGTLVTVSS
VL: DIQMTQSPSSLSASVGDRVTITCRASQGIRNDLGWYQQKPGRAPKRLIYVASSLQSGVPSRFSGSGSGTEFTLTISSLQPEDFATYYCLQHNSYPRTFGQGTKVEIK
- EC50 (read off the curve): ~0.3 µg/mL
